Experimental data taken from PMC6746701, “A phyB-PIF1-SPA1 kinase regulatory complex promotes photomorphogenesis in Arabidopsis” (Nature Communications, 2019).

Assays:
[1] = molecular target: T1, phyB-GFP ΔC purified from yeast (Saccharomyces cerevisiae) (Arabidopsis, UniProt P14713 1-1092, phycocyanobilin (PCB) chromophore assembled); assay: pull-down; in vitro: phytochromes purified from yeast (S. cerevisiae) and GST-PIF1; light-dependent; settings: both partners purified
T1 construct: phytochrome B (phyB), Arabidopsis, residues 1-1092 (lacks the last 80 amino acids); The methods describe the yeast purification only for the full-length protein; also called phyB ΔC-GFP; source: Saccharomyces cerevisiae, purified; not shown: GFP, C-terminal, kept
T1 sequence (looked up): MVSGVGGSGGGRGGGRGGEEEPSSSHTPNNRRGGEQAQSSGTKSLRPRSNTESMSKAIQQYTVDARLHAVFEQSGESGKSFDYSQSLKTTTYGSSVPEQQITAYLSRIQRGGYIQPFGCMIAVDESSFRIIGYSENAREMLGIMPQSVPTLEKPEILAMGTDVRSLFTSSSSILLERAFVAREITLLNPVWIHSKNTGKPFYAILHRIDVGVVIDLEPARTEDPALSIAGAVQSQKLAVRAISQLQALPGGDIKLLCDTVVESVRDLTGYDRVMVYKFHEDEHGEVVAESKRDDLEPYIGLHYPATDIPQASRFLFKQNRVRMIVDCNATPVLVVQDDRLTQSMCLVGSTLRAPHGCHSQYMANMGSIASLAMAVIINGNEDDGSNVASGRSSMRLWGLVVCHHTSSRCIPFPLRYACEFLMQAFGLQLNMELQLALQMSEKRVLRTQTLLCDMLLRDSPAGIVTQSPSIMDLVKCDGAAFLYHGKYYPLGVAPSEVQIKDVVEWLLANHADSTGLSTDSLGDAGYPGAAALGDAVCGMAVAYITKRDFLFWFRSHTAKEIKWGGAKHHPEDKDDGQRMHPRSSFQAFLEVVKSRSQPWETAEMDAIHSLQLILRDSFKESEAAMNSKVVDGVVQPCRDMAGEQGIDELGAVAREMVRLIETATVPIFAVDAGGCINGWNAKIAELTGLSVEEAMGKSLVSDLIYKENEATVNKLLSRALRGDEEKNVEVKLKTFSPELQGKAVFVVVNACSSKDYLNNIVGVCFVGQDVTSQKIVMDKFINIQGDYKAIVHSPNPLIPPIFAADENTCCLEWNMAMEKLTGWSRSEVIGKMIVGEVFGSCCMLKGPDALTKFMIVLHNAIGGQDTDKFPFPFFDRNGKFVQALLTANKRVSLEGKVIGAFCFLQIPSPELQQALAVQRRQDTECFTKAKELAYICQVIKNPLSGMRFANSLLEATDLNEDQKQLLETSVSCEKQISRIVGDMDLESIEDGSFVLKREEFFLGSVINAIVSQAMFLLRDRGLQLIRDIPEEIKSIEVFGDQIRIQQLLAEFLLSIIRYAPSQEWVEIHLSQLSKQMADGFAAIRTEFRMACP

[2] = molecular target: T2, phyB-GFP FL purified from yeast (Saccharomyces cerevisiae) (Arabidopsis, UniProt P14713 1-1172, phycocyanobilin (PCB) chromophore assembled); assay: as above; settings: both partners purified
T2 construct: not shown: GFP, C-terminal, kept
T2 sequence (looked up): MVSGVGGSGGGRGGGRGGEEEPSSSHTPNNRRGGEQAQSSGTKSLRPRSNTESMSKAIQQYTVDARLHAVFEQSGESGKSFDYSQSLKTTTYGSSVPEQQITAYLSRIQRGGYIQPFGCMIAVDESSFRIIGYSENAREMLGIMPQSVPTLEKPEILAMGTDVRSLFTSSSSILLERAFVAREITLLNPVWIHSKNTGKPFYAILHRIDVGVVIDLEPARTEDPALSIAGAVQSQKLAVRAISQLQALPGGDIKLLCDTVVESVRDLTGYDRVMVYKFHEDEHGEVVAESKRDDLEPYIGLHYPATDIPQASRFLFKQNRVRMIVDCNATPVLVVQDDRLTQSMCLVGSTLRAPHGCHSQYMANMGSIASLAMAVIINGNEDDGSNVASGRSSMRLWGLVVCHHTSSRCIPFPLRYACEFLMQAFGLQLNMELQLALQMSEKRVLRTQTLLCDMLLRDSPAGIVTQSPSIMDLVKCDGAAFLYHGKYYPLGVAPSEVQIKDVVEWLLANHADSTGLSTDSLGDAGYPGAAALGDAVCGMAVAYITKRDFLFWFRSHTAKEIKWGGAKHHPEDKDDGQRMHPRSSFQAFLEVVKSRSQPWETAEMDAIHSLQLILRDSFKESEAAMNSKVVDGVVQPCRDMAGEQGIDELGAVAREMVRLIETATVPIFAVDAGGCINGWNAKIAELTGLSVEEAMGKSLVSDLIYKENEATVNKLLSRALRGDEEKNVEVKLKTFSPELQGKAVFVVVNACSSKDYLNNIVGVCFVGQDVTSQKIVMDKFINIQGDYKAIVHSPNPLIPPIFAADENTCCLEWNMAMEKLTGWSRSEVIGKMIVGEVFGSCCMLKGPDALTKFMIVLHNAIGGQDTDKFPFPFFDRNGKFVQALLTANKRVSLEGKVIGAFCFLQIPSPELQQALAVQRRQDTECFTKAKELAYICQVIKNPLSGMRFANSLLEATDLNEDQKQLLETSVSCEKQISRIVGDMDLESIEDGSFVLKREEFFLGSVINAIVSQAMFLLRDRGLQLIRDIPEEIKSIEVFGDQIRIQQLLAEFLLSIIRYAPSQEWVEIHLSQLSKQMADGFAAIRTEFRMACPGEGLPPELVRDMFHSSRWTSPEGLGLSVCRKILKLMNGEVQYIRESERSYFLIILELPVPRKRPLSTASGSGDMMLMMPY

B1: GST-PIF1-strep (natural protein, Arabidopsis, UniProt Q8GZM7 1-478, looked up)
chain: MHHFVPDFDTDDDYVNNHNSSLNHLPRKSITTMGEDDDLMELLWQNGQVVVQNQRLHTKKPSSSPPKLLPSMDPQQQPSSDQNLFIQEDEMTSWLHYPLRDDDFCSDLLFSAAPTATATATVSQVTAARPPVSSTNESRPPVRNFMNFSRLRGDFNNGRGGESGPLLSKAVVRESTQVSPSATPSAAASESGLTRRTDGTDSSAVAGGGAYNRKGKAVAMTAPAIEITGTSSSVVSKSEIEPEKTNVDDRKRKEREATTTDETESRSEETKQARVSTTSTKRSRAAEVHNLSERKRRDRINERMKALQELIPRCNKSDKASMLDEAIEYMKSLQLQIQMMSMGCGMMPMMYPGMQQYMPHMAMGMGMNQPIPPPSFMPFPNMLAAQRPLPTQTHMAGSGPQYPVHASDPSRVFVPNQQYDPTSGQPQYPAGYTDPYQQFRGLHPTQPPQFQNQATSYPSSSRVSSSKESEDHGNHTTG
notes: source: E. coli BL21(DE3), purified (Strep-Tactin Sepharose); not shown: GST, N-terminal, kept; Strep tag, C-terminal, kept
Does B1 bind [1]?
Result: binds

Does B1 bind [2]?
Result: binds
